Data published in the RNAGym collection of RNA variant scans (doi:10.1073/pnas.2313332121).

B1: TPR t1 (parent)
chain: GACCAAUCUGCCCUCAGAGCUCGAGAACAUCUUCGGAUGCAGAGGAGGCAGGCUUCGGUGGCGCGAUAGCGCCAACGUCCUCAACCUCCAAUGCAUCCCACCACAUGAUGAUGCCUGAAGAGCCUUGGUUUUUUG

Variants of: B1
Experiment: polymerase ribozyme fitness, log enrichment relative to wild type (log ratio); higher = more active; in vitro selection for triplet polymerase activity
Outline: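 Mutant libraries were PCR-built and transcribed for each subunit of a heterodimeric triplet polymerase ribozyme and selected for one round in triplicate at −7 °C, frozen, before gel excision of extended constructs and streptavidin-bead capture. Input and output libraries were Illumina-sequenced, keeping genotypes with ≥10 input reads and ≥1 read per output. Fitness is a logarithmic ratio of genotype to wild-type enrichment, in base 2, using inverse-variance-weighted replicate averages.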

In order of rising “polymerase ribozyme fitness (log ratio)” value:
1. C11G A16U A24G G47C G63U A111C  -7.31
2. C11U A27U C62U C88G C97G C98U C99U C114G C124A G128A  -7.25
3. C11G C13U C70G C97A A103C C123U  -7.22
4. C11U C13G A24G G47C C49A C88G C94U A108U C114U  -6.99
5. C11G U33C C73U C99U A111C  -6.85
6. C11G C22U G61C A83G  -6.84
7. C11G C70G U116A U129C  -6.8
8. C11G G35A C73G U81G U109A  -6.69
9. C11G C49U C73A G77A C102U G110U  -6.69
10. C11G G71A C80G G128A  -6.67
11. C11G A95C C114G G120A  -6.61
12. C11U A24U C28G C62G A83G G113U U133C  -6.38
13. C11G C22U A50U C56A G57U C89U  -6.34
14. C11G G35A G117U  -6.34
15. C11U A18G G45U G52U G61A A111G U130G U132A  -6.3
16. C11U A41U G63A U78C C88U C114U U131G  -6.29
17. C11G C64G  -6.21
18. C11G C64U C98G U106C  -6.08
19. C11G C28G C56G C85G  -6.05
20. C11U A29G G77U A84U C89A  -6.04
21. C11U A27U U32G A37U C62A U109A  -5.82
22. C11G C22U G113U A119G  -5.79
23. C11U A43G G63A  -5.66
24. C11G C49G C70U C88G A111U G127C  -5.65
25. C11U A16G U54G C102U C104U G117A  -5.64
26. C11G G36U A43U C62U G63A C115U U125A U132A  -5.64
27. C11G C94U C104G G113A  -5.51
28. C11G C15A A29U G45C G77A G120A G128U  -5.34
29. C11G G23A  -5.25
30. C11G U32A G48U U96A C123A  -5.24
31. C11U A18C C72G G127A  -5.18
32. C11U A24G G45U A91G  -5.06
33. C11G G58C C97A C104A  -4.9
34. C11G C15G A90C G110A  -4.74
35. C11U C13A C22U U55G  -4.69
36. C11G C40A C99U  -4.65
37. C11G U109A G110C  -4.59
38. C11G G25A  -4.53
39. C11G A50C A75U C97A C102U  -4.52
40. C11G G25U  -4.49
41. C11G A41C C56U C72U G93A C123G G135U  -4.47
42. C11G G107A  -4.44
43. C11U C22G C40U U106G  -4.43
44. C11A U92A  -4.36
45. C11U A26U C88A  -4.34
46. C11G G17A C72A  -4.27
47. C11U C20U C22A A91U G113A  -4.25
48. C11G C22U G36A  -4.08
49. C11G A41U G69C U81C  -4.06
50. C11G C97A  -4.05
51. C11U C15A A26G C53G G61U G120C  -4.04
52. C11G C40U G69U A74G C79A C115A  -4
53. C11G C22U G61A A66C  -3.92
54. C11G G17C C53U C79U U129G  -3.84
55. C11G A43C C62U U129C U130G  -3.83
56. C11U A84C U92G  -3.8
57. C11G G51C A84G U131C  -3.58
58. C11G G93C A105U A119U  -3.55
59. C11G G17C U55G C73U  -3.54
60. C11G A37G G69C C115G  -3.53
61. C11G A29C C49A G117A G120A  -3.48
62. C11G G110C  -3.47
63. C11G U14A G19U U55G U92G A121G  -3.45
64. C11G G113U G128U  -3.42
65. C11G C56G G57A U96C G113U  -3.3
66. C11U A26U  -3.21
67. C11G C13U U32C A68G  -3.2
68. C11G A29U G117C  -3.19
69. C11G A27U G36A G58A  -3.1
70. C11G A16U G47C G60A  -3.03
71. C11U A26U U55C G71U  -3
72. C11G G17A C72U C101U  -2.99
73. C11G A50G C97G  -2.97
74. C11G G36A G127A  -2.95
75. C11G A24G C40U G120U U132G  -2.9
76. C11U A26U G52C G61U  -2.85
77. C11U A41U G69C  -2.81
78. C11G C34U  -2.8
79. C11U C15A C56G G69U  -2.64
80. C11G A46G U106G G128U  -2.63
81. C11A U87G C101G  -2.62
82. C11G G44C C79G  -2.6
83. C11G C13A  -2.58
84. C11G G57A G93A U96A  -2.56
85. C11U A74U G113A  -2.56
86. C11G A27G A29U C94U  -2.53
87. C11G U92G  -2.49
88. C11G C114G  -2.38
89. C11U A18C C82A C104U  -2.34
90. C11U A83U C101G  -2.28
91. C11G C56U A111U  -2.23
92. C11G G44C C86G U126A  -2.2
93. C11G C12U U21G A37U  -2.2
94. C11G A29G C94G  -2.16
95. C11G G113U  -2.12
96. C11G G51A C53G G61U C124U U131G  -1.99
97. C11G C64U G117C  -1.98
98. C11U C12G C56A C88U  -1.97
99. C11G A29U  -1.95
100. C11G C20U A46G A83G A95G  -1.9
101. C11G G44A U133G  -1.89
102. C11U A50U G57A  -1.89
103. C11G A41C U87A U92G  -1.84
104. C11U C15U C56U C72U  -1.82
105. C11U A66C  -1.81
106. C11G C79G C82A  -1.78
107. C11U A84U C89U  -1.61
108. C11G G128A  -1.59
109. C11G G17U A91C G117A  -1.55
110. C11G C88A C102A  -1.55
111. C11G G35A G69C C98U  -1.46
112. C11G U59A C85A U87A  -1.45
113. C11G C53G  -1.43
114. C11G C40U C49U U55G U130A U132A  -1.35
115. C11G U78G A91G A95C G135U  -1.3
116. C11G G113C  -1.3
117. C11G U96A U112A G122A G128C  -1.26
118. C11G C89A  -1.26
119. C11G G36A G63C  -1.16
120. C11G G36A C70A  -1.16
121. C11G A29G  -1.16
122. C11G G110A  -1.04
123. C11G C15A U59A C73A U125A  -1.02
124. C11G A46C  -1.01
125. C11G C49A C62A  -0.975
126. C11G U131G  -0.902
127. C11G C72G G117A  -0.843
128. C11G A105U U112A A119G G120A G122A  -0.827
129. C11G G39U C56U  -0.805
130. C11G U21G C53A U55C  -0.805
131. C11G C114U  -0.754
132. C11G U78C A90C  -0.723
133. C11G C101A  -0.692
134. C11G C70U G122U  -0.676
135. C11G U96A  -0.629
136. C11G C40A C72U C101U C104U G135U  -0.627
137. C11G A18U C86U C124U  -0.586
138. C11G U129C  -0.495
139. C11G U106G  -0.452
140. C11G G110U  -0.409
141. C11G G44A  -0.407
142. C11U C20U C56A C88U C114U U131G  -0.397
143. C11G C86U  -0.354
144. C11G G60C  -0.354
145. C11G C15A G61A U125G  -0.186
146. C11G C56A  -0.185
147. C11G A37C  -0.179
148. C11U A27U C72U U78G A121U  -0.173
149. C11G U78C C114A G120C  -0.166
150. C11G C88A  -0.146
151. C11G C76G  -0.0651
152. C11G G135U  -0.0424
153. C11G C115A  0.0312
154. C11G G48A C82U G122U  0.0866
155. C11G G77U  0.134
156. C11G C76U U78A  0.137
157. C11U A83C G93A G120A U131C  0.209
158. C11G G60U  0.25
159. C11G A41G  0.309
160. C11G C72U  0.401
161. C11G G45A G52U C101A U106A A121U  0.469
162. C11G C12G G48A G120C  0.765
163. C11G C15G G36U A74C G117C  0.809
164. C11G G60A  0.811
165. C11G U59C  1.4
166. C11G G57U G120A  1.4
167. C11G G122A C124G  1.83
